Each block holds one binder with its values, some of them ahead of it.
How the values were obtained:
[1] = target: T1, mouse serum albumin (mouse, UniProt P07724 25-608); assay: BLI (Octet), biotinylated albumin on SA sensor, pH 6.0
T1 construct: also called MSA
In short: (§1)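 First, biotinylated albumin (1 μg/ml, 600 s) was immobilised on SA tips in PBS-T with 1% casein at pH 6.0 or 7.4. Next, serially diluted AFFIMER® polypeptide associated for 300 s, then dissociated for 600 s, at 25° C and 1000 rpm. Finally, sensors were regenerated with 10 mM glycine pH 1.5.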

[2] = target: T2, cynomolgus serum albumin (cynomolgus); assay: as above
T2 construct: also called CSA; cyno serum albumin
T2 sequence (A2V9Z4 25-608): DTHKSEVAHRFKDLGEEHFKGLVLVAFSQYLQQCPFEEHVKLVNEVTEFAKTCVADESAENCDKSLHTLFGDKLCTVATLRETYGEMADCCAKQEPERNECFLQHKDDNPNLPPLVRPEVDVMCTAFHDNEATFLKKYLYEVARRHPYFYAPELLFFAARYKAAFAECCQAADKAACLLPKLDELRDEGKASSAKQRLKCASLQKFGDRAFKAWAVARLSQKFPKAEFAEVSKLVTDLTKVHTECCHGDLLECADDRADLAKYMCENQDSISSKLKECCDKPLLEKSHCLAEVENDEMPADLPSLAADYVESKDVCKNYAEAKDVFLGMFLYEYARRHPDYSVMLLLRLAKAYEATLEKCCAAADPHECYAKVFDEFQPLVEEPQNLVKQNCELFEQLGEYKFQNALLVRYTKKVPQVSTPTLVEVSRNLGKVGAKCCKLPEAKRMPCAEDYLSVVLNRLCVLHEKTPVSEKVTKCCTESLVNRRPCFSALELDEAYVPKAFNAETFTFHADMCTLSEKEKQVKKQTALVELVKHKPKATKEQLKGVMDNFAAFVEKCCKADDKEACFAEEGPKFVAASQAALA
In short: as §1

[3] = target: T3, human serum albumin (human, UniProt P02768 25-609); assay: as above
T3 construct: mature; Bought protein; biotinylated in the Octet and HTRF assays; also called HSA; HuSA
In short: as §1

[4] = target: T3, human serum albumin; assay: binding ELISA on coated albumin, pH 6.0, panel 'HSA Binding at pH 6.0'
Description: (§2) Briefly, ELISA was performed as follow:
(§3) Human (Sigma-Aldrich); Cynomolgus and Mouse (Abcam); Equine (Abcam); Canine (Abcam); Mouse (Sigma-Aldrich); Rabbit (Sigma-Aldrich); Porcine (Sigma-Aldrich);, and Rat (Sigma-Aldrich) serum albumin were coated overnight on 96 well plates (Corning Costar) at 1 μg/ml in PBS at the appropriate pH (pH 6.0 or 7.4). Plates were saturated using 5% Casein (Sigma-Aldrich) buffer in PBS. […] Plates were then washed and AFFIMER® proteins were detected using a biotinylated polyclonal antibody anti-Cystatin (R&D System) for 90 minutes. After washing, streptavidin-HRP (Thermo Fisher Scientific) was added and incubated for 30 minutes.

[5] = target: T4, rat serum albumin (rat, UniProt P02770 25-608); assay: binding ELISA, coated albumin, pH 7.4
T4 sequence (P02770 25-608 limits assumed): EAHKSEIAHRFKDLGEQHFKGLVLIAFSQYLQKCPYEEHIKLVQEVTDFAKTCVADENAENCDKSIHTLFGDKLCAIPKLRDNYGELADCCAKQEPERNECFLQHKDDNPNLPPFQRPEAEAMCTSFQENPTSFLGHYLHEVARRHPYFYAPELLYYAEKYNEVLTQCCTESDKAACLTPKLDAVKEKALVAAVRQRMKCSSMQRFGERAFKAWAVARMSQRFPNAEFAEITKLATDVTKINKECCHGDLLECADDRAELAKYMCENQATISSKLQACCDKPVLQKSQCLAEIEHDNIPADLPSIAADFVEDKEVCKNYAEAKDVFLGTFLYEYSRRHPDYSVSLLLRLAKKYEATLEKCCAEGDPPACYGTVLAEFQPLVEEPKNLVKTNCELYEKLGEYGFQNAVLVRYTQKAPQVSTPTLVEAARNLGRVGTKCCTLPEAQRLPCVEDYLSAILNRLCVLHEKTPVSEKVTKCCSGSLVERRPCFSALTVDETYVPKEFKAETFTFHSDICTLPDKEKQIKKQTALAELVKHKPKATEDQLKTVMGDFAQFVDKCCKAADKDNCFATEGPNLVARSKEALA
Description: as §2, §3

[6] = target: porcine serum albumin (porcine, UniProt P08835 25-607); assay: binding ELISA, coated albumin, pH 7.4
porcine serum albumin, sequence (P08835 25-607 limits assumed): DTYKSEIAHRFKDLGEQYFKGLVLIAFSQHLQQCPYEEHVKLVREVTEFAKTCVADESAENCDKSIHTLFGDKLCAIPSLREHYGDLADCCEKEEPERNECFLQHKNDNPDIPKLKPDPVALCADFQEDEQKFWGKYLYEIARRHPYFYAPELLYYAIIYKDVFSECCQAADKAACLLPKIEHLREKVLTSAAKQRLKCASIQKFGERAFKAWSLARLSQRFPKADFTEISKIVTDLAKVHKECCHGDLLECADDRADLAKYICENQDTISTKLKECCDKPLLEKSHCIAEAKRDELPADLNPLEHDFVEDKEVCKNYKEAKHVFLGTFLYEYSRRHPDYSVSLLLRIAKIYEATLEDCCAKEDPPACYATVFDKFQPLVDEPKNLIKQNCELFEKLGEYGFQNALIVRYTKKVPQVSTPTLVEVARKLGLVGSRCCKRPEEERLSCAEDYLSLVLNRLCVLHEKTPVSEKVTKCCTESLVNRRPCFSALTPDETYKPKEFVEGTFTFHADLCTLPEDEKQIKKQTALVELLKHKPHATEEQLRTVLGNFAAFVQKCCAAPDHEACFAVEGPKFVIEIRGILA
Description: as §2, §3

[7] = target: T2, cynomolgus serum albumin; assay: binding ELISA, coated albumin, pH 7.4
Description: as §2, §3

[8] = target: T3, human serum albumin; assay: binding ELISA, coated albumin, pH 7.4
Description: as §2, §3

[9] = target: canine serum albumin (canine, UniProt P49822 25-608); assay: binding ELISA on coated albumin, pH 6.0, panel 'Canine SA Binding at pH 6.0'
canine serum albumin, sequence (P49822 25-608 limits assumed): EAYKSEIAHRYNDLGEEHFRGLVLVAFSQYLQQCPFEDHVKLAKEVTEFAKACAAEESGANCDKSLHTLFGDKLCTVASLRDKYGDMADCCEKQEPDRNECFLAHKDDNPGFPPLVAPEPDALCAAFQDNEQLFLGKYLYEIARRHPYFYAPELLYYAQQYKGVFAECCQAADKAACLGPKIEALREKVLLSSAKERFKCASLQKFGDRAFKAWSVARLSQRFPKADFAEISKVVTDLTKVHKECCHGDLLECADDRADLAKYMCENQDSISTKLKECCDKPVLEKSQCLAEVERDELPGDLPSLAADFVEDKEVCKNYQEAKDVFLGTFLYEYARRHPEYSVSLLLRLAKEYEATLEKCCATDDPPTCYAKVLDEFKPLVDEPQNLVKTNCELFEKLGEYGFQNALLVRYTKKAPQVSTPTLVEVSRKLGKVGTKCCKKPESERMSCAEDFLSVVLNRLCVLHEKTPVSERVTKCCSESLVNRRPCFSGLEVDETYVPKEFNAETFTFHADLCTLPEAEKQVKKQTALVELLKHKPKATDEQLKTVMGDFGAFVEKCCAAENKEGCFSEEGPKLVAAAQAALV
Description: as §2, §3

[10] = target: T2, cynomolgus serum albumin; assay: binding ELISA on coated albumin, pH 6.0, panel 'CSA Binding at pH 6.0'
Description: as §2, §3

[11] = target: equine serum albumin (equine, UniProt P35747 25-607); assay: binding ELISA on coated albumin, pH 7.4, panel 'Equine SA Binding at pH 7.4' (Table 6 gives NA for this pair)
equine serum albumin, sequence (P35747 25-607 limits assumed): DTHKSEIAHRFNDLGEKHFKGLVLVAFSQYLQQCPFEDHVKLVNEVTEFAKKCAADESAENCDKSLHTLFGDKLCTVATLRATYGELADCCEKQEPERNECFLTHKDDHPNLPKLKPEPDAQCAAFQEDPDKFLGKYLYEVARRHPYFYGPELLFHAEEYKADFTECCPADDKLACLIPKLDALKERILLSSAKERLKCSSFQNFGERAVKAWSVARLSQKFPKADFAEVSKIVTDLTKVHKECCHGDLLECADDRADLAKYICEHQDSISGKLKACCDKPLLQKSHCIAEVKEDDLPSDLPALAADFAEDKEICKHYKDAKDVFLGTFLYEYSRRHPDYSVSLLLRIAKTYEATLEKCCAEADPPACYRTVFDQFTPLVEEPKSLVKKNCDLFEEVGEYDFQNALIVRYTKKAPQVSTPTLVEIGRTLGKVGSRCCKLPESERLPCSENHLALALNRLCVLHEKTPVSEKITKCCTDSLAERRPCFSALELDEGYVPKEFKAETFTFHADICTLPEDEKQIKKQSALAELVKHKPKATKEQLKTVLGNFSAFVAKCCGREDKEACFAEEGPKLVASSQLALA
Description: as §2, §3

[12] = target: T1, mouse serum albumin; assay: BLI (Octet), biotinylated albumin on SA sensor, pH 7.4
In short: as §1

[13] = target: T2, cynomolgus serum albumin; assay: as above
In short: as §1

[14] = target: T3, human serum albumin; assay: as above
In short: as §1

[15] = target: T1, mouse serum albumin; assay: SPR (Biacore T200), albumin amine-coupled to CM5, Affimer analyte, pH 7.4
Description: (§4) Affinities for mouse, human, and cynomolgus serum were also measured at pH 7.4 for four (4) AFFIMER® binders using surface plasmon resonance (SPR) (FIG. 5, Table 5). […] A concentration titration of AFFIMER® monomers was run as analyte at a flow rate of 30 μl/min or 60 μl/min. Fc2-1, Fc3-1 and Fc4-1 kinetic data was blank subtracted and fit to a 1:1 Langmuir binding model (BIAcore Evalution software; GE) to calculate KD values.

[16] = target: T2, cynomolgus serum albumin; assay: as above
Description: as §4

[17] = target: T3, human serum albumin; assay: as above
Description: as §4

[18] = target: T5, recombinant FcRn (Homo sapiens (Human), UniProt P55899 24-297; P61769 21-119, Biotinylated (site and any tag carrying the biotin are not stated); captured on a Biotin CAPture chip.); assay: Biacore, biotinylated FcRn on Biotin CAPture chip, PBS-T pH 6.0
T5 construct: Captured on a Biotin CAPture chip; also called biotinylated FcRn (Amsbio); copies: 1 + 1
Description: FcRn Biacore binding analysis was performed using Biotin CAPture chip according to the manufacturer's protocol (GE Healthcare). Briefly, Biotin CAPture reagent was run for 300 sec at a 2 μl/min flow rate over surfaces Fc1 and Fc2 followed by the capture of biotinylated FcRn (Amsbio) at 10 μg/mL with a contact time of 50 seconds, run at 10 μl/min delivered to Fc2 only. […] Surface Fc1 and Fc2 regeneration was performed according to the manufacturer's protocol.

[19] = target: rabbit serum albumin (rabbit, UniProt P49065 25-608); assay: binding ELISA on coated albumin, pH 7.4, panel 'Rabbit SA Binding at pH 7.4' (Table 6 gives NA for this pair)
rabbit serum albumin, sequence (P49065 25-608 limits assumed): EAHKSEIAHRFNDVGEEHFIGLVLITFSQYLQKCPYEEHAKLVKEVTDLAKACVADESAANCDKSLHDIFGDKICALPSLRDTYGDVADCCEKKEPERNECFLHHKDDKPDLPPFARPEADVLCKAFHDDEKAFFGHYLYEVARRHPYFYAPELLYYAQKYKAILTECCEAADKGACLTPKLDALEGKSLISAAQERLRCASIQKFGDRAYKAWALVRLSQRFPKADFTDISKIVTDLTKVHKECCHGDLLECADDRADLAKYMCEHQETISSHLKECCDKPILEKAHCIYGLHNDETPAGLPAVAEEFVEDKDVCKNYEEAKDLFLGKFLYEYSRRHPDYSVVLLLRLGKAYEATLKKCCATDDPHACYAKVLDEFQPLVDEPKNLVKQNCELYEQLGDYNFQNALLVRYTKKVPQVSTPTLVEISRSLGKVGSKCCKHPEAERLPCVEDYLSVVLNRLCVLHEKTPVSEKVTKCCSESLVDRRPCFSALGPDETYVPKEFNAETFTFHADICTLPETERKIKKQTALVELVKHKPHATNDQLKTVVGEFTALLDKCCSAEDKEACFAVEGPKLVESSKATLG
Description: as §2, §3

[20] = target: T1, mouse serum albumin; assay: Octet biolayer interferometry, biotinylated albumin on SA sensors, pH 7.4
Description: (§5) Biotinylated antigen was captured onto SA sensors at 1 μg/ml for 600 seconds in a buffer comprising PBS-T (0.01% Tween 20)+1% casein at either pH 6.0 or 7.4. Association was carried out for 300 seconds and dissociation for 600 seconds, and regeneration was performed using 10 mM glycine pH 1.5 (GE Healthcare) for 3×5 seconds. All steps were carried out at 1000 rpm and 25° C. Purified AFFIMER® polypeptide in two-fold serial dilutions was analyzed at a starting concentration of approximately 10× K_{D value}. Kinetics analyses were carried out using the Octet data analysis software, subtracting the reference sensor (loaded with antigen), aligning the Y-axis to baseline, and using inter-step correction to align association to dissociation. Savitzky-Golay filtering was applied and the data processed. Analysis of the data was carried out with a 1:1 model, global fit, Rₘₐₓ unlinked by sensor.

[21] = target: T2, cynomolgus serum albumin; assay: as above
Description: as §5

[22] = target: T3, human serum albumin; assay: as above
Description: as §5

[23] = target: T4, rat serum albumin; assay: binding ELISA on coated albumin, pH 6.0, panel 'Rat SA Binding at pH 6.0'
Description: as §2, §3

[24] = target: T1, mouse serum albumin; assay: Octet biolayer interferometry, biotinylated albumin on SA sensors, pH 6.0
Description: as §5

[25] = target: T2, cynomolgus serum albumin; assay: as above
Description: as §5

[26] = target: T3, human serum albumin; assay: as above
Description: as §5

[27] = target: T3, human serum albumin; assay: Biacore, immobilised HSA, pH 7.4
Description: as §4

[28] = target: T3, human serum albumin; assay: SPR (Biacore), immobilised HSA, pH 7.4
Description: as §4

[29] = target: T6, mPD-L1 (mouse, UniProt Q9EP73 19-238, limits assumed); assay: competition ELISA: mPD-L1 pre-incubated with the AFFIMER polypeptide and added to coated mPD-1; blocked ligand mPD-1
T6 construct: May be the same reagent as the mouse PD-L1-Fc of the Biacore run
T6 sequence (Q9EP73 19-238 limits assumed): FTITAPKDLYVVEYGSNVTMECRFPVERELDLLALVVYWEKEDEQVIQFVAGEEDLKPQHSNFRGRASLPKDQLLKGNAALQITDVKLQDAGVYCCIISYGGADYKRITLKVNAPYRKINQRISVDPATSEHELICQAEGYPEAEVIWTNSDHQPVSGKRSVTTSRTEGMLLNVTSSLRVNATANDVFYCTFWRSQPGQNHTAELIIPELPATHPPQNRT
Description: (§6) Briefly, PD-1 was coated overnight on the plate at 1 μg/ml in carbonate buffer. Then plates were saturated using 5% Casein/PBS buffer. […] After saturation, the mix was added to the plates and incubated for 90 minutes. Plates were then washed and the detection polyclonal antibody, biotinylated anti-PD-L1, was added. After washing the plates, streptavidin-HRP was added for 30 minutes. After a final wash, development of the reaction was performed using TMB (Pierce) and the plates were read using a plate reader at 450 nm (FIG. 26C).

[30] = target: T1, mouse serum albumin; assay: binding ELISA on coated MSA, panel title 'Affimer binding to MSA, pH 7' (legend: pH 7.4)
Description: as §3, §6

[31] = target: T7, mouse PD-L1-Fc tagged recombinant antigen (R&D systems) (mouse, UniProt Q9EP73 19-238); assay: Biacore single cycle kinetics, mouse PD-L1-Fc captured on Protein A chip
T7 construct: Captured on a Protein A chip; not shown: Fc part of the bought protein, not described
T7 sequence (Q9EP73 19-238 limits assumed): as above
Description: (§7) Aantigen was captured using a Protein A chip (GE Healthcare) and the AFFIMER® ILF format was run as an analyte using single cycle kinetics titrating from a maximum concentration of 1 nM, and regenerating using 10 mM glycine pH 1.5 (GE Healthcare).

[32] = target: T7, mouse PD-L1-Fc tagged recombinant …; assay: SPR (Biacore), mouse PD-L1-Fc captured on Protein A chip, single cycle kinetics
Description: as §7

T1 sequence (P07724 25-608 limits assumed): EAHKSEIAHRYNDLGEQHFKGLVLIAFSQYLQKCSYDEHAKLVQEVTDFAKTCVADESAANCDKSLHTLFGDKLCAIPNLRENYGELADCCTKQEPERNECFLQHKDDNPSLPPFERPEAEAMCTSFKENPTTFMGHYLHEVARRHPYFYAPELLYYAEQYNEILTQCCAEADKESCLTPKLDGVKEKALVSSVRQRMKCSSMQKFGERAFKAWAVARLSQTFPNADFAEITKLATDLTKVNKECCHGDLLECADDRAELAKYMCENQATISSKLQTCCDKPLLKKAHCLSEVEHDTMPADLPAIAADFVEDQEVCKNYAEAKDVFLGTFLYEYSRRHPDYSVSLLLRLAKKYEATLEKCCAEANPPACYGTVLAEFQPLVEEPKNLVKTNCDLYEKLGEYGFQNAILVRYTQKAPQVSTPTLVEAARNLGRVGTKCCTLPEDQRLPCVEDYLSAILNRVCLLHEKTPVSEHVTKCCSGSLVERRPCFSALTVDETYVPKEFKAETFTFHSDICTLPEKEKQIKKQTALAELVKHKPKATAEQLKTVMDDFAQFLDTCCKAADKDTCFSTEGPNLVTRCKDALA

Kd [1]: 511 nM | Kd [2]: 133 nM | Kd [3]: 23.4 nM | EC50 (read off the curve) [4]: ~7 nM | EC50 [5]: 16.1 nM | EC50 [6]: 894 nM | EC50 [7]: 9.55 nM | EC50 [8]: 18.9 nM | EC50 (read off the curve) [9]: ~20 nM | EC50 (read off the curve) [10]: ~20 nM | binding result [11]: binds | Kd [12]: 622 nM | Kd [13]: 213 nM | Kd [14]: 40.5 nM | Kd [15]: 855 nM | koff [15]: 0.0981 s⁻¹ | kon [15]: 115000 M⁻¹ s⁻¹ | Kd [16]: 419 nM | koff [16]: 0.0199 s⁻¹ | kon [16]: 47600 M⁻¹ s⁻¹ | Kd [17]: 350 nM | koff [17]: 0.0183 s⁻¹ | kon [17]: 52200 M⁻¹ s⁻¹ | binding result [18]: no binding | binding result [19]: binds | koff [20]: 0.0509 s⁻¹ | kon [20]: 81800 M⁻¹ s⁻¹ | koff [21]: 0.0148 s⁻¹ | kon [21]: 69600 M⁻¹ s⁻¹ | koff [22]: 0.00517 s⁻¹ | kon [22]: 128000 M⁻¹ s⁻¹ | EC50 (read off the curve) [23]: ~1 nM | koff [24]: 0.0596 s⁻¹ | kon [24]: 117000 M⁻¹ s⁻¹ | koff [25]: 0.00611 s⁻¹ | kon [25]: 45700 M⁻¹ s⁻¹ | koff [26]: 0.00501 s⁻¹ | kon [26]: 214000 M⁻¹ s⁻¹
B1: HSA-20 (designed binder)
chain: MIPRGLSEAKPATPEIQEIVDKVKPQLEEKTNETYGKLEAVQYKTQVLAGYWAAKWPGSTNYYIKVRAGDNKYMHLKVFNGPFPNTSYDLQADRVLTGYQVDKNKDDELTGFHHHHHH

Kd [27]: 3.21 nM | koff [27]: 0.00663 s⁻¹ | kon [27]: 2.07e+06 M⁻¹ s⁻¹ | Kd [28]: ~3 nM
B2: HSA-41 CQ (designed binder)
chain: MIPRGLSEAKPATPEIQEIVDKVKPQLEEKTNETYGKLEAVQYKTQVLANFFQRRWPGSTNYYIKVRAGDNKYMHLKVFNGPWKFRNTDRGADRVLTGYQVDKNKDDELTGFAAAGGRAEQKLISEEDLGCAENLYFQGGAAGHHHHHH
notes: Purified in the presence of 5 mM TCEP; also called HSA-41 free C-terminal cysteine format (CQ); HAS-41 CQ

IC50 [29]: 135 nM | binding result [30]: binds | koff [31]: 0.0025 s⁻¹ | kon [31]: 2.76e+07 M⁻¹ s⁻¹ | Kd [32]: 0.0906 nM
B3: AVA04-182 XT20 (designed binder)
chain: MIPRGLSEAKPATPEIQEIVDKVKPQLEEKTNETYGKLEAVQYKTQVLAFALPEFEYMSTNYYIKVRAGDNKYMHLKVFNGPPMIRRKNEVADRVLTGYQVDKNKDDELTGFAEAAAKEAAAKEAAAKEAAAKEAAAKEAAAKMIPRGLSEAKPATPEIQEIVDKVKPQLEEKTNETYGKLEAVQYKTQVLAFALPEFEYMSTNYYIKVRAGDNKYMHLKVFNGPPMIRRKNEVADRVLTGYQVDKNKDDELTGFAEAAAKEAAAKEAAAKEAAAKEAAAKEAAAKMIPRGLSEAKPATPEIQEIVDKVKPQLEEKTNETYGKLEAVQYKTQVLANFFQRRWPGSTNYYIKVRAGDNKYMHLKVFNGPWKFRNTDRGADRVLTGYQVDKNKDDELTGFHHHHHH

Source: patent US20230272011A1 (AVACTA LIFE SCIENCES, published 2023)
